# B1: human-mouse chimeric comparative monoclonal antibody 1 (antibody)
# heavy: not shown
# light: DIQMTQSPASLSASVGETVTITCRASGNIHNYLAWYQQKQGKSPQLLVYNAKTLADGVPSRFSGSGSGTQYSLKINSLQPEDFGSYYCQHFWSTLTFGAGTKLELKRTVAAPSVFIFPPSDEQLKSGTASVVCLLNNFYPREAKVQWKVDNALQSGNSQESVTEQDSKDSTYSLSSTLTLSKADYEKHKVYACEVTHQGLSSPVTKSFNRGEC
# B2: human-mouse chimeric comparative monoclonal antibody 3 (antibody, human IgG1, kappa)
# heavy: not shown
# light: RTTSHMDSDIQLTQSPASLSASVGETVTITCRASGNIHNYLAWYQQKQGKSPQLLVYNAKTLADGVPSRFSGSGSGTQYSLKINSLQPEDFGSYYCQHFWSTLTFGGGTKLEIKQSDTVAAPSVFIFPPSDEQLKSGTASVVCLLNNFYPREAKVQWKVDNALQSGNSQESVTEQDSKDSTYSLSSTLTLSKADYEKHKVYACEVTHQGLSSPVTKSFNRGEC
# B3: human-mouse chimeric comparative monoclonal antibody 4 (antibody, human IgG1, kappa, V domains shown)
# VH: EVQLHQFGAELVKPGASVKISCKASGYTFTDYNMDWVKQSHGKSLEWIGDINPNYDSTSYNQKFKGKATLTVDKSSSTAYMELRSLTSEDTAVYYCARSRSYDYEGFAYWGQGTLVTVSA
# VL: SGDRVSLSCRASQSISNYLHWYQQKSHESPRLLIKYASQSISGIPSRFSGSGSGTDFTLSINSVETEDFGMYFCQQSNSWPYTFGAGTKLEIKQ
# B4: human-mouse chimeric comparative monoclonal antibody 7 (antibody, human IgG1, kappa, V domains shown)
# VH: LQESGAELARPGASVKLSCKASGYTFTSYWMQWVKQRPGQGLEWIGAIYPGDGDTRYTQKFKGKATLTADKSSSTAYMQLSSLASEDSAVYYCARGEYGNYFAYWGQGTTVTVSS
# VL: TSDASLGERVTITCKASQDINSYLSWFQQKPGKSPKTLIYRANRLVDGVPSRFSGSGSGQDYSLTISSLEYEDMGIYYCLQYDEFPLTFGGGTKLEIKQ
# Target: T1, CAPRIN-1 protein on the cell surface of human cancer cell lines (human, UniProt Q14444 2-709)
# T1 sequence (looked up): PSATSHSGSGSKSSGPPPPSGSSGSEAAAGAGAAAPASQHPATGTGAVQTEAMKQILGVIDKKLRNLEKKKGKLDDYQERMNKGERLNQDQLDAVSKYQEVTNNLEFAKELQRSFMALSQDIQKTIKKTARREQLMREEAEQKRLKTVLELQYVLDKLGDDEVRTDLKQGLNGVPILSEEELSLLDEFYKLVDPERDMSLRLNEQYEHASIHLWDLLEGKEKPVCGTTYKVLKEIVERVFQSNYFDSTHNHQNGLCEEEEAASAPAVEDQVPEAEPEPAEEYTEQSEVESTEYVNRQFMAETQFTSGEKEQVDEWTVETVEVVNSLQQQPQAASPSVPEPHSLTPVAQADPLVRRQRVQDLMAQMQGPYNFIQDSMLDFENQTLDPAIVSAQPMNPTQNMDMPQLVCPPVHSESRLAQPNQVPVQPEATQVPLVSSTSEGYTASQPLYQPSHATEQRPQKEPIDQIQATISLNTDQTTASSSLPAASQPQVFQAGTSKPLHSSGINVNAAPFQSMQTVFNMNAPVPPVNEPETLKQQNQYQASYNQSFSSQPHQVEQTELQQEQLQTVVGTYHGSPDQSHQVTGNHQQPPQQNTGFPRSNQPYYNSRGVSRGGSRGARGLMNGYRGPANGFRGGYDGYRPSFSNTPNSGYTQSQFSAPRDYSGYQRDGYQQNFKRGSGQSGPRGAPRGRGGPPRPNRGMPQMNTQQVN
# Experiment: cell-based or functional assay
row,Binder,"cytotoxic activity (ADCC, chromium 51 release) against MCF7, QG56, HCT-116, MIAPaCa-2 and Caki-2 [%]"
1,B1,< 5
2,B2,< 5
3,B3,< 5
4,B4,< 5

# — patent publication US20140154261A1 (TORAY INDUSTRIES, published 2014)
